Source: patent US20110165161A1, “ANTI-EPCAM ANTIBODIES THAT INDUCE APOPTOSIS OF CANCER CELLS AND METHODS USING SAME” (priority 2009, published 2011)

Key:
[1] = target: T1, EGFI-Cr1 R44G (human, UniProt P16422 24-63); assay: direct ELISA, coated EGFI-Cr1 fusion, 0.1 µg/ml antibody
T1 construct: not shown: the constant region of human immunoglobulin gamma 1 heavy chain (Cr1) fused at the C-terminus
T1 chain: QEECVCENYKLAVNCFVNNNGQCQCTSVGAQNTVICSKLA

[2] = target: T2, EGFI-Cr1 N42E (human, UniProt P16422 24-63); assay: as above
T2 construct: not shown: the constant region of human immunoglobulin gamma 1 heavy chain (Cr1) fused at the C-terminus
T2 chain: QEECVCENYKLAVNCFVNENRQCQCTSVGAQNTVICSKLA

[3] = target: T3, EGFI-Cr1 Q45A (human, UniProt P16422 24-63); assay: as above
T3 construct: not shown: the constant region of human immunoglobulin gamma 1 heavy chain (Cr1) fused at the C-terminus
T3 chain: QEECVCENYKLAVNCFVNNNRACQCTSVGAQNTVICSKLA

[4] = target: T4, EGFI-Cr1 E25K (human, UniProt P16422 24-63); assay: as above
T4 construct: not shown: The fused constant region of human immunoglobulin gamma 1 heavy chain (Cr1)
T4 chain: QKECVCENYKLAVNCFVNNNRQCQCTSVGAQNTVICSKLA

[5] = target: T5, EGFI-Cr1 N41A (human, UniProt P16422 24-63); assay: as above
T5 construct: not shown: The fused constant region of human immunoglobulin gamma 1 heavy chain (Cr1)
T5 chain: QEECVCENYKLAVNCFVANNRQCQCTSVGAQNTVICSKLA

[6] = target: T6, EGFI-Cr1 Q47A (human, UniProt P16422 24-63); assay: as above
T6 construct: not shown: the constant region of human immunoglobulin gamma 1 heavy chain (Cr1) fused at the C-terminus
T6 chain: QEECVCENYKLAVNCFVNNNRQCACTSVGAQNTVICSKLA

[7] = target: T7, EGFI-Cr1 Q24A (human, UniProt P16422 25-63); assay: as above
T7 construct: not shown: The fused constant region of human immunoglobulin gamma 1 heavy chain (Cr1)
T7 chain: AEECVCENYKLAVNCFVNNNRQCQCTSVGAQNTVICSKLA

[8] = target: T8, EGFI-Cr1 A35T (human, UniProt P16422 24-63); assay: as above
T8 construct: not shown: The fused constant region of human immunoglobulin gamma 1 heavy chain (Cr1)
T8 chain: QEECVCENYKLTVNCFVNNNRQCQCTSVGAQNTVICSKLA

[9] = target: T9, EGFI-Cr1 N43A (human, UniProt P16422 24-63); assay: as above
T9 construct: not shown: the constant region of human immunoglobulin gamma 1 heavy chain (Cr1) fused at the C-terminus
T9 chain: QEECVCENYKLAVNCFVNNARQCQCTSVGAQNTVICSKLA

[10] = target: T10, EGFI-Cr1 wild type (first EGF-like repeat of human EpCAM fused to the constant region of human immunoglobulin … (human, UniProt P01857-1 99-330 = IgG part)); assay: as above
T10 construct: cDNA covered aa 1-63; Expressed in COS-7 cells; also called WT; EpCAM EGF-1 fusion protein WT

[11] = target: T11, EGFI-Cr1 N37R (human); assay: as above
T11 construct: not shown: The fused constant region of human immunoglobulin gamma 1 heavy chain (Cr1)
T11 chain: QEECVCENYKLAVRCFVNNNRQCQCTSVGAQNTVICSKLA

[12] = target: T12, EGFI-Cr1 E26D (human, UniProt P16422 24-63); assay: as above
T12 construct: not shown: The fused constant region of human immunoglobulin gamma 1 heavy chain (Cr1)
T12 chain: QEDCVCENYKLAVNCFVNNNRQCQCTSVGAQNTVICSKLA

[13] = target: T13, EGFI-Cr1 F39A (human, UniProt P16422 24-63); assay: as above
T13 construct: not shown: The fused constant region of human immunoglobulin gamma 1 heavy chain (Cr1)
T13 chain: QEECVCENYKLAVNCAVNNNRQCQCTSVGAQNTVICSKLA

[14] = target: T14, EGFI-Cr1 V40E (human); assay: as above
T14 construct: not shown: The fused constant region of human immunoglobulin gamma 1 heavy chain (Cr1)
T14 chain: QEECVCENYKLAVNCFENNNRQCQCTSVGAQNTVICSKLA

[15] = target: T15, EGFI-Cr1 T49A (human, UniProt P16422 24-63); assay: as above
T15 construct: not shown: the constant region of human immunoglobulin gamma 1 heavy chain (Cr1) fused at the C-terminus
T15 chain: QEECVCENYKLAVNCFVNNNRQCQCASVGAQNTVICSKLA

[16] = target: T16, human EpCAM (epithelial cell adhesion/activating molecule) (human, UniProt P16422 24-314); assay: cell-based or functional assay
T16 sequence: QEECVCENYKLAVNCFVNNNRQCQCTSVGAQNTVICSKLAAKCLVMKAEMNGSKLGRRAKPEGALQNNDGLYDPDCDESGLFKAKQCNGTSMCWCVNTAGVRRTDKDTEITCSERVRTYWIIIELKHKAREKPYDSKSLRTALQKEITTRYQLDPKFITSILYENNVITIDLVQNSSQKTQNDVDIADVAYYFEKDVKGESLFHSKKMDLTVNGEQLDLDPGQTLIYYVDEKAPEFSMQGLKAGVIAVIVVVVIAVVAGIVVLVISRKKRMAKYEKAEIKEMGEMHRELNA

[17] = target: T16, human EpCAM (epithelial cell …); assay: flow cytometry, CHO/EpCAM cells, 0.1 µg/ml antibody
Protocol: A 300× dilution of human cell hyper-immune serum (HPS 300×) was used as binding positive control for both cell lines here. After 1 hr incubation at 4° C., cells were washed twice with 200 μl FACS buffer (1×PBS containing 1% FBS), stained with 100 μl of 1 μg/ml goat-anti-mouse IgG-PE (Southern Biotech, Cat. No. 1032-09) in FACS buffer and then incubated at 4° C. for 30 min. Cells were washed thrice with FACS buffer and analyzed by flow cytometry (BD LSR, BD Life Sciences).

[18] = target: T16, human EpCAM (epithelial cell …); assay: cell-based or functional assay; remark: listed apart in the source

B1: murine monoclonal antibody 6D11 (antibody, mouse IgG1, V domains shown)
VH: EVQLVESGGDLVKPGGSLKLSCAASGFAFDSYGMSWIRQTPGTRLEWVATISSGGYYTYYEDNVKGRFIISRDNAKNTLDLQMSGLKSEDAATYYCARRGNYDVDYYAMDYWGQGTSVIVSS
VL: DVVLTQIPLSLPVSLGDQASISCRSSQSLEHSNGNTYLHWYLQKPGQSPKLLIYKVSNRFSGVPDRFSGSGSGTDFTLKISRVEAEDLGVYFCSQSTHVPPWTFGGGTKLEFKR
notes: Mouse IgG1, kappa, from hybridoma; also called m338-6D11.8
relative binding activity (% of WT) [1]: 2% | relative binding activity (% of WT) [2]: 83% | relative binding activity (% of WT) [3]: 8% | relative binding activity (% of WT) [4]: 4% | relative binding activity (% of WT) [5]: 2% | relative binding activity (% of WT) [6]: 33% | relative binding activity (% of WT) [7]: 47% | relative binding activity (% of WT) [8]: 39% | relative binding activity (% of WT) [9]: 65% | relative binding activity (% of WT) [10]: 100% | relative binding activity (% of WT) [11]: 69% | relative binding activity (% of WT) [12]: 57% | relative binding activity (% of WT) [13]: 23% | relative binding activity (% of WT) [14]: 2% | relative binding activity (% of WT) [15]: 67% | % Annexin V/PI-positive cells, DLD-1, 1.0 µg/ml mAb [16]: 28% | % Annexin V/PI-positive cells, DLD-1, 3.0 µg/ml mAb [16]: 53% | % Annexin V/PI-positive cells, DLD-1, 10 µg/ml mAb [16]: 62% | % Annexin V/PI-positive cells, FaDu, 1.0 µg/ml mAb [16]: 26% | % Annexin V/PI-positive cells, FaDu, 3.0 µg/ml mAb [16]: 39% | % Annexin V/PI-positive cells, FaDu, 10 µg/ml mAb [16]: 37% | % Annexin V/PI-positive cells, LNCaP, 1.0 µg/ml mAb [16]: 38% | % Annexin V/PI-positive cells, LNCaP, 3.0 µg/ml mAb [16]: 43% | % Annexin V/PI-positive cells, LNCaP, 10 µg/ml mAb [16]: 44% | % Annexin V/PI-positive cells, NCI-H520, 1.0 µg/ml mAb [16]: 38% | % Annexin V/PI-positive cells, NCI-H520, 3.0 µg/ml mAb [16]: 42% | % Annexin V/PI-positive cells, NCI-H520, 10 µg/ml mAb [16]: 49% | % Annexin V/PI-positive cells, NCI-N87, 1.0 µg/ml mAb [16]: 41% | % Annexin V/PI-positive cells, NCI-N87, 3.0 µg/ml mAb [16]: 51% | % Annexin V/PI-positive cells, NCI-N87, 10 µg/ml mAb [16]: 57% | % Annexin V/PI-positive cells, NIH:OVCAR-3, 1.0 µg/ml mAb [16]: 46% | % Annexin V/PI-positive cells, NIH:OVCAR-3, 3.0 µg/ml mAb [16]: 52% | % Annexin V/PI-positive cells, NIH:OVCAR-3, 10 µg/ml mAb [16]: 55% | % Annexin V/PI-positive cells, T-47D, 1.0 µg/ml mAb [16]: 25% | % Annexin V/PI-positive cells, T-47D, 3.0 µg/ml mAb [16]: 40% | % Annexin V/PI-positive cells, T-47D, 10 µg/ml mAb [16]: 44% | MFI [17]: 1350 MFI | % of Annexin V + PI staining (untreated background subtracted), NCI-H358, 10 µg/ml mAb, Exp1 [18]: 45% | % of Annexin V + PI staining (untreated background subtracted), NCI-H358, 10 µg/ml mAb, Exp2 [18]: 40% | % of Annexin V + PI staining (untreated background subtracted), NCI-H358, 10 µg/ml mAb, Exp3 [18]: 44% | % of Annexin V + PI staining (untreated background subtracted), NCI-H358, 10 µg/ml mAb, Exp4 [18]: 43% | % of Annexin V + PI staining (untreated background subtracted), NCI-H358, 10 µg/ml mAb, Exp5 [18]: 40%

B2: murine monoclonal antibody 4D2 (antibody, mouse IgG1, V domains shown)
VH: EVQLVESGGDLVKPGGSLKLSCAASGFAFDSYGMSWVRQTPGKRLEWVATISSGGYYTYYQDSVKGRFTTSRDNAKNTLDLQMSSLKSEDSAIYYCARRGNYDVDYYAMDYWGQGTSVTVSS
VL: DVVMTQTPLSLPVSLGDQASISCRSSQSLVHSNGNTYLHWYLQKPGQSPKLLIYKVSNRFSGVPDRFSGSGSGTDFTLRISRVEAEDLGVYFCSQSTHVPPWTFGGGTKLEIKR
notes: Mouse IgG1, kappa, from hybridoma; also called m338-4D2.20
relative binding activity (% of WT) [1]: 1% | relative binding activity (% of WT) [2]: 82% | relative binding activity (% of WT) [3]: 4% | relative binding activity (% of WT) [4]: 2% | relative binding activity (% of WT) [5]: 0% | relative binding activity (% of WT) [6]: 23% | relative binding activity (% of WT) [7]: 41% | relative binding activity (% of WT) [8]: 27% | relative binding activity (% of WT) [9]: 57% | relative binding activity (% of WT) [10]: 100% | relative binding activity (% of WT) [11]: 64% | relative binding activity (% of WT) [12]: 52% | relative binding activity (% of WT) [13]: 11% | relative binding activity (% of WT) [14]: 1% | relative binding activity (% of WT) [15]: 63% | % Annexin V/PI-positive cells, DLD-1, 1.0 µg/ml mAb [16]: 31% | % Annexin V/PI-positive cells, DLD-1, 3.0 µg/ml mAb [16]: 51% | % Annexin V/PI-positive cells, DLD-1, 10 µg/ml mAb [16]: 62% | % Annexin V/PI-positive cells, FaDu, 1.0 µg/ml mAb [16]: 37% | % Annexin V/PI-positive cells, FaDu, 3.0 µg/ml mAb [16]: 43% | % Annexin V/PI-positive cells, FaDu, 10 µg/ml mAb [16]: 46% | % Annexin V/PI-positive cells, LNCaP, 1.0 µg/ml mAb [16]: 49% | % Annexin V/PI-positive cells, LNCaP, 3.0 µg/ml mAb [16]: 52% | % Annexin V/PI-positive cells, LNCaP, 10 µg/ml mAb [16]: 50% | % Annexin V/PI-positive cells, NCI-H520, 1.0 µg/ml mAb [16]: 24% | % Annexin V/PI-positive cells, NCI-H520, 3.0 µg/ml mAb [16]: 30% | % Annexin V/PI-positive cells, NCI-H520, 10 µg/ml mAb [16]: 32% | % Annexin V/PI-positive cells, NCI-N87, 1.0 µg/ml mAb [16]: 49% | % Annexin V/PI-positive cells, NCI-N87, 3.0 µg/ml mAb [16]: 52% | % Annexin V/PI-positive cells, NCI-N87, 10 µg/ml mAb [16]: 55% | % Annexin V/PI-positive cells, NIH:OVCAR-3, 1.0 µg/ml mAb [16]: 40% | % Annexin V/PI-positive cells, NIH:OVCAR-3, 3.0 µg/ml mAb [16]: 51% | % Annexin V/PI-positive cells, NIH:OVCAR-3, 10 µg/ml mAb [16]: 56% | % Annexin V/PI-positive cells, T-47D, 1.0 µg/ml mAb [16]: 35% | % Annexin V/PI-positive cells, T-47D, 3.0 µg/ml mAb [16]: 44% | % Annexin V/PI-positive cells, T-47D, 10 µg/ml mAb [16]: 45% | MFI [17]: 1740 MFI | % of Annexin V + PI staining (untreated background subtracted), NCI-H358, 10 µg/ml mAb, Exp1 [18]: 43% | % of Annexin V + PI staining (untreated background subtracted), NCI-H358, 10 µg/ml mAb, Exp2 [18]: 41% | % of Annexin V + PI staining (untreated background subtracted), NCI-H358, 10 µg/ml mAb, Exp3 [18]: 45% | % of Annexin V + PI staining (untreated background subtracted), NCI-H358, 10 µg/ml mAb, Exp4 [18]: 46% | % of Annexin V + PI staining (untreated background subtracted), NCI-H358, 10 µg/ml mAb, Exp5 [18]: 43%
